Measurements taken from the supplement of paper PMC12636428.

The sequences below were run on Saccharomyces cerevisiae (assay: transcriptional activation domain activity (GFP:mCherry ratio, weighted mean of sorted bins, harmonized to initial dataset scale) (arbitrary fluorescence ratio units); higher = stronger transcriptional activation). Settings: beta-estradiol 1 µM; induction time 4 h.
How it was run: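 The activation activity of each tile is the read-weighted mean of bin median fluorescence, averaged across its barcodes and mapped linearly onto the scale of the initial dataset. Tiles were fused to an estradiol-inducible synthetic transcription factor, barcoded, and integrated at URA3 in yeast diploids carrying a GFP reporter. Induction used 1 uM beta-estradiol in SC for 4 hours at 30 °C, after which cells were sorted into 8 GFP:mCherry bins, and any tile with fewer than 50 reads was dropped.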

Sequence	transcriptional activation domain activity
MPTLLVSLCSFFPWPLFLSFLFLVFHTFASLVIVQKSHFILSYILIMHLSFFA	46300
RVFLFRLMLSLIYTFLGSLCVTGAVWAYRVNWKVNGNQFVLSWMAIWLFAHCN	44800
VRNNSENASHNNETGPIETELAQTISNEFWTAYNLGWEELMSQPDYKYLFDTQ	117000
MLLTLLWLFFFFFFFFFPNIPPGVLFTFPSFDLLFASWFISSICASPFFAQFP	56100
QLTRGNWSDLFFLFIFLWIVLFFFLLHWSWAWLLVFVLSICSSGLLGAILFFF	27200
NDLFAWPWGNPIDLDVAIALQETSIGCYNKRTTVFYANSCNTLLSLLVNKFLL	33300
RSEKRSEERSSRSGPTDRVEGQERGSDRERGREKRGSDRESSRRDRGGEGERA	31700
MLPDEVSPWFQEVFIPTLLAYCGTFQHPWDLPQPFEDIIAELWPFVFPLSLPY	68000
VENPVTDDNGNLKLELPDNLDNADFSKLLEFDAKNDEALFNSNELLSHTMDPV	94700
ASIPEPTANLFLDSINTFGSIDIFDSDLDLNNTLQWADLFDLNFDNIMMTPQF	123000
GWFGAVFGVLYFFLFIFGITSVYIGFSFLLYSICLSHGTVWHPLCQFHFFYFI	28100
SSNGRKSSKRRSRDKDEDEDEDEEDRKRRKRRRERERSKEKEERRSVLTGKKI	27200
WHIRCVLLLVAFLHICYQVSYCACGLILVCLNFIFVRQPGGLEMLLTLKTAFY	57800
FFFFPFLSLLFFFFPFLLSLLSSSLLLAAFSCFCFLPSLTPLPLSSSSSSPLF	34900
LGVSAGAGLYPLQDKKREEEEDGVRGFVREGLGDLSCFIGSSVPLTAKKVLEA	75700
SREQPPSGQSRETLQKRVLHVRSVGRVTKGGKIRSASAIVVVGNGNGIGGYGE	38900
CVGLLCLLDTLHLCFSIHMMYFYLIHNFGNVKAVFDIIWSLKGLGTVQVLLIW	45200
GRGRGGRGAGARGRGGTGEEGEGAGGKQERGQGGRGKERGGEGGGERGQGGRG	28000
GHGTHCSGTVAGKKYGVAKKASVYAVKVLRSNGSGTMSDVVKGVEYAAESHIK	7670
NLRLMIVNFRKYGVLICIRCHDYRRQDVVYGLLLYLLVPCHLFVAYLIELAAA	47800
EDGEQKKQVLACSFCRERKIACGRPSAHSRDRTCNQCARRCMKCEHPTESRRG	13800

Sequence	transcriptional activation domain activity
IIALLLRFYDPSSGKVLVGPDDLRNLNVRSLRSHIALVTQSPVLFSGTILDNI	42100
AYAVMVVIQSLFLCLFGMAFQFSFFLNANFVVVYSIFVLYGWAMICFALFLST	46800
ASEAAVKEESASPAAKKSKKDKKPAKGSSDSVEAPVAEATPKTKKTAKANGAV	28000
MVKSFALGGLILLFSFLLLLLLLSLLLLFISSLLSLSLIPFFLFDSLSIARFS	64400
WWMYLPLLLLLVLMFAPHYSILVLLVSYYLNIHDSPFLFSLHLFVIYLITFLA	58200
GESDDEGGGGRKRKKAKVEPAPKVKVERKPAAPVQEGEKKKRGRPRKVAPLPA	24400
KPHHKWIVPTPFASHAFHPVDGYFQSLPYHIFIFVFPMQRHLYLALFVAVNCW	41800
TIMYGVRFVVVLLTMEIMIHFMYMVAIFHAKPDWSAYTPFQLSMLGYFNLNHI	46200
MFLCCVCIEAQARILYLCCLYKLLTFYSFYYFYHSYFLLILNFFLLTILHALC	74000
SLTHGMPQDLRRAVRNGVRLASAEDQERYFTFILHEAVRLYGVLMMRIVYRLF	55300
GRIMERSGGWLVLVSHFSYFLNWVLVLFLLFFGGYAYVYYLCISSLLFPFTSF	48800
LINYLLVLLVFRKWLKGHQVPLFVIMSYAWTRQLSFMDNVRRTNKRATLAMLR	57200
ADMILGFFFKNFVWTFILFWYQLFCQFNGTMVFDYSLVTLYNLVFTSLPIAFL	65600
RDWRYVPEYVMRICRAHHADKPSVQMLVRKCFLEHIVNLTFTSFKALMSSKMS	42700
KLKEKNKKRKRGEEVSDDEEEGPKDDEPKEKKAKKEEEHGVWVGNLAFATSQD	36700
MSDLETPKRRRPGVRPRASQACRACAAAKVRCDNLQSCHRCQNKRVACVRGSH	34100
WGLIIGLVGLNAALIYIGWRYYEVYYFLLVLLSSNTILQTFMCFCIMLHWFCT	40400
YFVVRGFLFSSAVGCLGLRLGLGLFKRVIYWDQKLLLFLFLFPFFFPPLFSTR	60900
HSMPSLATICGVCFIVDVYCIMRISLLHSYWIPMRRTLPLLAFPVVSFIFLFF	79400
VHGSSFLVRYFVYITPLVLVILIPLLLGALLFKHASVAGVEMVWFCIWLEIVW	50100
LKSKALDAKVPIGLFTVLFFHPFLFPFCSLFPALFAPSFLFLFPLCFVTHFFL	52400

Sequence	transcriptional activation domain activity
MSFKKDEETGVSSFYQDKTSVIQEARVFNETPISPRKCRILLTKVIYLLYSGE	44100
GVFVLLEQYCGINFYGLRKHGGTASMCPLGGTLRSWAYRFVAISYPPKRMVNG	27600
YRTSQDLVGLSTVLEQYFNIGGLTGLLIIGDLIHCGLLPMPSIITWTRLIAHV	68800
APDQPLTTQGKPRTRVYVACIQCRSRKIRCDGAKPVCHNCSHRASSAVGGVLE	18000
MQSGHLFRLFGIAKTVLFFFSSVSCSLLHFLFSSFPFPIFPFVLSICYVFHFF	46600
VYPENYETASVNTERDMELLVGHFDFMAKEAFLADSISLCSTEEELERRLDTP	102000
EPAEEEEEEDDDDEDDPEVRRKEELRARMAKMSAGMGGMGGMMNPFAAPVAPG	62200
MIITFYTFFSFFPFFISFSLSLFSLRYFFFFFSFLSLSFFFFLFFLILIHLFL	14400
LSLLLQDRPRFIFGFSFLLLKSIWCIGFYFINSRLKCMCILYILLIDILYFTF	49800
VVNLLQSLHFGGLLNHKKRHYFWIIFGAIFFWEWIPQFPFPLLTAFSVICLVD	47400
EKEGKRRSLQKASTSKASSKTLHFMECKVVPEQPLLRIRWSSLTHGALMLYNG	49300
SEVKYFWSYYNHVCFLVIPIDDNGLSIFFSCFTGESVEIILSIICVAMTQVLT	35200
VHNNSNNSNNSNISASDYTVANNSTSNNNNNNNNNNNNNNNIHPNQFTAAANM	39200
MDGDERPRKRARLACTNCNARRVKCDVTDRQPCRNCEIAHAVCETRESKRGKH	9400
AKDGEEEKEKPKRGRKRKEAPAAEGEAEGEAADDAEPPAKKTKPASKAAPASK	23100
TGQGGLEEVKGKLDETKASFAYVRITYANDKESQREKFILIIFIGAEVKVMRK	37500
AAAAAAAASNSYAIPENELLDEDTMNFISSLKNDLSNISNSLPFEYPHEIAEA	123000
YCDAKPGHSLVFAGHAGELELYLDKSCDADSIMTRENLGSLNRFVRLLLLLAK	38300
MAPKAPEASPPKRGRGRPRKAESEKKTKAYEPTGRPRGRPKGSGGVKKSVAAT	19600
MLFIPFCVLFFVWLWGLINYGAFVDPCFLSFYVLLSTLLQLPSSSFLSFFALF	54400
RDRGDSHRRHHHRSGSDDERRHRSDRRAREKDGDRSRSHRSSRHADEREERDE	17600

Sequence	transcriptional activation domain activity
MATFLSCLRPFVCSFFLFSFLFRPWPWVYIHVGFGGNSCSTFDFLSIFFVTFF	43300
FSVLFSKLFVWGILPYQTVGVVIQHTCQAVFLFVNIYWTFWRNWPWVQSGFFT	80100
SQKKHCELCKTPFRFTKLYSPSMPKTLPVYVFLSHVAKYLLRNLLVEARAMLV	42900
MNLSRYAVVLATQWGILIMLAMNQLCIPSFLTMFAYIPTKVLQFFHYFIVSLF	47700
YQKLLVDARQAAEMFFKMLHYELWTHLLERLLRLRQMCNHWSLCKKKGMENCR	54300
NGLENAASVITILDKSSNGTFINGEKIGKGQQRLLKDGNEVSFGVCVRSTENN	24500
DSFDAPIQTLGDDQRACLKPGLWFAYKVRFCVTLKQYKVLWMCLVLLRHLRIK	48000
AVIRKIRLLVCLAREQALRGYALEMVIHGLKPFIVDSYCSQDTIGVVQYLLHR	46700
SVASEKGADDSAEEDHEHEHRHKKRRHREHREREHRSSRHKHRSSRRHAEEVD	21000
GQAGAPQRASARGSVQLPAQRGAQDGEPAAARRARSRDHARHKPPRHGEAVHA	46200
AKRGQNEALAGAKPERGGAGAKQDARAARGRAQGSGVRGAGRGAAGRGQAQQV	41100
YLKELTRCAKLPYSTRAMKNLNNVAITCACTLLVSVPHFNFRGDLLKIIVAKV	39500
YPVGKQVLARYPETTTFYRAEVMGTKRDGTCRLKFEGEEEVGKETEVERRLVL	77100
YILYMLRMSVRELTRSELLIVRLGRPTKLIIAGNWEINLLGIFVGLGIVCTEV	59400
EEKAPFDIPLDEFFTELEKHSNVSQFNTLDVSEGNQVINESASTNTSSALNCQ	103000
KEKAKAKAKERKREERRKEKEKRAKEKEREKKRLREKEKRRKEKEKEKRRKEK	14900
GLCYCHSIKLRHLLIPMEKLYLMGLILVQCYNGVLHSMLFGARYEFLPLMLTS	71000
WQTALVHKHAQRVIHSTLEVVDQLVPKHYDHQLLRRCWGALNLIMTYVSFMCV	41400
LQHRTWLIHWSLFPLFNYEQARETLTELFFSAPYINTIQTNCPWILRYLAAAV	28100
MSDLPLFFYFYFITVCITSWRFTCILAPGLFFSFYFFLCFFCLFSLLSLHDLM	20700
